The results in this text go back to patent US20180319847A1.

Experiment [1] has as its target EphB2-Fc. The experiment can be described thus: SPR, EphB2-Fc immobilised on CM5, 100 nM analyte. (In general: Surface plasmon resonance follows binding to a sensor surface in real time, without labels.)
Experiment [2] has as its target EphB2-Fc. Briefly: SPR competition on immobilised EphB2-Fc; competitor ephrinB2-Fc (246 nM) preincubated with 0-1020 nM GST-Azu 88-113.
Experiment [3] addresses EphB2-Fc. The experiment can be described thus: SPR competition on immobilised EphB2-Fc; competitor ephrinB2-Fc (246 nM), 0-1020 nM GST-Azu 88-113.

Chain of GST-Azu 88-113 (chain): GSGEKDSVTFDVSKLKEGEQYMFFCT
Chain of EphB2-Fc (P54763 19-543): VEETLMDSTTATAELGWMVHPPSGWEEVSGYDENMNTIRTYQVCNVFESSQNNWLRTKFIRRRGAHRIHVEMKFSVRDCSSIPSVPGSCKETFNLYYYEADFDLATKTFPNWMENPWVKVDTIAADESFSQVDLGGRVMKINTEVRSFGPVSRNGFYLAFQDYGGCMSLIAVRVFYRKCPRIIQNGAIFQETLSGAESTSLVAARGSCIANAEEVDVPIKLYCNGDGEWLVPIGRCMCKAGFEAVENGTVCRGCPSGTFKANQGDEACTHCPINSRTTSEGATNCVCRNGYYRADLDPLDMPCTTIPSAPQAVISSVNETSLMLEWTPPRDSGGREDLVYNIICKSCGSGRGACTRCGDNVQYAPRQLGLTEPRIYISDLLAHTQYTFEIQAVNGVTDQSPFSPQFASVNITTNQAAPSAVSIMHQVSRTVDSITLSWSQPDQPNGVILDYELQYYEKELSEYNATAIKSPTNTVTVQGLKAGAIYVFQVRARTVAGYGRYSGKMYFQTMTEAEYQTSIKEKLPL
Chain of GST-Azu 36-89 (B3EWN9 36-89): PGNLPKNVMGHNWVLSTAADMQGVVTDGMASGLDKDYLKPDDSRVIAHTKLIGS

The substance “GST-Azu 36-89 (from UniProt B3EWN9 36-89)” yielded a Req in RU with EphB2-Fc [1] of 57 RU.

On to GST-Azu 88-113, for which, in the experiment with EphB2-Fc [2], the reduction of total protein binding to the surface was less than 60%. This substance came in with a level at which the inhibition levels off in the experiment with EphB2-Fc [3] of 40 to 50%.
